Paper PMC3156243, “Properties and Crystal Structure of Methylenetetrahydrofolate Reductase from Thermus thermophilus HB8” (PLoS ONE, 2011)

How the values were obtained:
Experiment in all cases: purified protein
purified protein [1] = substrate: NC(=O)C1=CN([C@@H]2O[C@H](COP(=O)(O)OP(=O)(O)OC[C@H]3O[C@@H](n4cnc5c(N)ncnc54)[C@H](O)[C@@H]3O)[C@@H](O)[C@H]2O)C=CC1; conditions: FAD; 25.0 °C
purified protein [2] = substrate: Cc1cc2nc3c(=O)[nH]c(=O)nc-3n(C[C@H](O)[C@H](O)[C@H](O)COP(=O)(O)OP(=O)(O)OC[C@H]3O[C@@H](n4cnc5c(N)ncnc54)[C@H](O)[C@@H]3O)c2cc1C; conditions: active center of the β[…]α[…] barrel; Glu18 near the si-face of the isoalloxazine ring, Asp109 near C2; non-covalently bound; varied: cofactor
purified protein [3] = substrate: Nc1nc2c(c(=O)[nH]1)N1CN(c3ccc(C(=O)N[C@@H](CCC(=O)O)C(=O)O)cc3)C[C@H]1CN2; conditions: FAD; 50.0 °C

B1: MTHFR (methylenetetrahydrofolate reductase) (Thermus thermophilus HB8) (protein)
chain: MKIRDLLKARRGPLFSFEFFPPKDPEGEEALFRTLEELKAFRPAFVSITYGAMGSTRERSVAWAQRIQSLGLNPLAHLTVAGQSRKEVAEVLHRFVESGVENLLALRGDPPRGERVFRPHPEGFRYAAELVALIRERYGDRVSVGGAAYPEGHPESESLEADLRHFKAKVEAGLDFAITQLFFNNAHYFGFLERARRAGIGIPILPGIMPVTSYRQLRRFTEVCGASIPGPLLAKLERHQDDPKAVLEIGVEHAVRQVAELLEAGVEGVHFYTLNKSPATRMVLERLGLRPASGQP
Km (purified protein [1]): 9.7 ± 2.1 µM | Km (purified protein [2]): 5 µM | Km (purified protein [3]): 180 ± 23 µM
